Source: article PMC2606091 (Cell, 2008)

How the values were obtained:
Hsp33 (Escherichia coli) = Hsp33 (Escherichia coli) (UniProt P0A6Y5); details: cited from earlier work
AUC = target: the molecule itself; assay: AUC

Q: For Hsp33 (from UniProt P0A6Y5), which Kd (Hsp33 (Escherichia coli)) is on record?
A: 590 nM

B1: Hsp33 oxidised and activated with a 10-fold molar excess of HOCl (Hsp33_(HOCl)) (natural protein)
chain: MPQHDQLHRYLFENFAVRGELVTVSETLQQILENHDYPQPVKNVLAELLVATSLLTATLKFDGDITVQLQGDGPMNLAVINGNNNQQMRGVARVQGEIPENADLKTLVGNGYVVITITPSEGERYQGVVGLEGDTLAACLEDYFMRSEQLPTRLFIRTGDVDGKPAAGGMLLQVMPAQNAQQDDFDHLATLTETIKTEELLTLPANEVLWRLYHEEEVTVYDPQDVEFKCTCSRERCADALKTLPDEEVDSILAEDGEIDMHCDYCGNHYLFNAMDIAEIRNNASPADPQVH
modifications: two intramolecular disulfide bonds (Cys232-Cys234; Cys265/Cys268 fully oxidised) after HOCl treatment
Q: For B1, which Kd (AUC) is on record?
A: 570 nM

Q: And the “stoichiometry N” value (AUC)?
A: 2
